Like-named read-outs stand apart in the source and are kept apart here.

Experiment [1] addresses CD28 (human) (UniProt P10747). In words: flow cytometry, Jurkat cells (CD28).
In experiment [2] the target is human PD-L1 (human) (UniProt Q9NZQ7).
The target of experiment [3] is CD28 (human) (UniProt P10747).
Experiment [4] addresses human PD-L1 (human) (UniProt Q9NZQ7). In words: flow cytometry, MFI on CHO/PD-L1 over MFI on Jurkat (CD28).
Experiment [5] has the same target. In words: flow cytometry, CHO cells stably expressing PD-L1.
For experiment [6], the target named is human CTLA-4 (human) (UniProt P16410). In words: flow cytometry, CHO cells stably expressing CTLA4.
For experiment [7], the target named is human PD-L1 (human) (UniProt Q9NZQ7). This is another data set of the same source.
For experiment [8], the target named is CD28 (human) (UniProt P10747). This is another data set of the same source.
The target of experiment [9] is human PD-L1 (human) (UniProt Q9NZQ7). The source holds these as a separate data set.
Experiment [10] addresses CD28 (human) (UniProt P10747). The source holds these as a separate data set.

Chain of human PD-L1 (human) (Q9NZQ7 19-290): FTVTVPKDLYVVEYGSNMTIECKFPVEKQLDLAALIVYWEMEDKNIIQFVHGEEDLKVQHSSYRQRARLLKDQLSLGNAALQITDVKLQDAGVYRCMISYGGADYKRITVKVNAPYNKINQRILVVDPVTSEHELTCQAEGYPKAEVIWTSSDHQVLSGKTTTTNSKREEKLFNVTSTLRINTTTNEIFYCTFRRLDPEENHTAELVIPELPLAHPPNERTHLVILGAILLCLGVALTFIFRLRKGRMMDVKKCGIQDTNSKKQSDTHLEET
Chain of human CTLA-4 (human) (P16410 36-223): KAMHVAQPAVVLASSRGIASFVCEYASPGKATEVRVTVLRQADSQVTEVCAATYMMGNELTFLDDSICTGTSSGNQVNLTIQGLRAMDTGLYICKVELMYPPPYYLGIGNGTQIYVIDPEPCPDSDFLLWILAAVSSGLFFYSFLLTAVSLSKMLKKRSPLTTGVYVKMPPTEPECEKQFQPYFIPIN

B1: CD80 IgV-Fc E35D/M47L/V68M/A71G/L85Q/D90G (Fc fusion)
chain: VIHVTKEVKEVATLSCGHNVSVEELAQTRIYWQKDKKMVLTMMSGDLNIWPEYKNRTIFDITNNLSIMILGLRPSDEGTYECVVQKYEKGAFKREHLAEVTLSVKAD
As for B1, the Fold change to WT in experiment [1] came out at 33.9 fold; in experiment [5], 202 fold. Besides, the MFI at 33.3 nM in experiment [1] worked out at 1400 MFI; in experiment [5], 16800 MFI; in experiment [6], 10300 MFI. Moreover, the RLU at 5.0 nM: Fold Increase over WT CD80-IgV-Fc in experiment [2] and in experiment [3] was 2.3 fold each time. Also, the Ratio of PDL1:CD28 in experiment [4] stood at 12. In [6], this molecule had a Fold change to WT CD80 of 10.1 fold.

B2: CD80 IgV-Fc H18Y/E35D/M47V/V68M/L85M (Fc fusion)
chain: VIHVTKEVKEVATLSCGYNVSVEELAQTRIYWQKDKKMVLTMMSGDVNIWPEYKNRTIFDITNNLSIMILALRPSDEGTYECVVMKYEKDAFKREHLAEVTLSVKAD
As to B2, the RLU at 5.0 nM: Fold Increase over WT CD80-IgV-Fc turned out to be 2.5 fold in experiment [7], 2.5 fold in experiment [8], 6.4 fold in experiment [9] and 6.4 fold in experiment [10]. The Fold change to WT CD80 in [1] is 33.7 fold; in experiment [5] it was 43.6 fold; in [6], 18.5 fold. Also, the figures for the MFI at 33.3 nM in experiment [1], in experiment [5] and in experiment [6] were 1390 MFI, 3090 MFI and 19300 MFI, respectively. In addition, in [4], the Ratio of PDL1:CD28 turned out to be 2.2.

These data come from patent publication US20220177587A1, “METHODS AND USES OF VARIANT CD80 FUSION PROTEINS AND RELATED CONSTRUCTS” (Alpine Immune Sciences, Inc., priority 2018, published 2022).
